Holding throughout (test): cell-based or functional assay
Assay [1] concerns the target T1, human GIP receptor (human, UniProt P48546 22-466).
T1 sequence (looked up): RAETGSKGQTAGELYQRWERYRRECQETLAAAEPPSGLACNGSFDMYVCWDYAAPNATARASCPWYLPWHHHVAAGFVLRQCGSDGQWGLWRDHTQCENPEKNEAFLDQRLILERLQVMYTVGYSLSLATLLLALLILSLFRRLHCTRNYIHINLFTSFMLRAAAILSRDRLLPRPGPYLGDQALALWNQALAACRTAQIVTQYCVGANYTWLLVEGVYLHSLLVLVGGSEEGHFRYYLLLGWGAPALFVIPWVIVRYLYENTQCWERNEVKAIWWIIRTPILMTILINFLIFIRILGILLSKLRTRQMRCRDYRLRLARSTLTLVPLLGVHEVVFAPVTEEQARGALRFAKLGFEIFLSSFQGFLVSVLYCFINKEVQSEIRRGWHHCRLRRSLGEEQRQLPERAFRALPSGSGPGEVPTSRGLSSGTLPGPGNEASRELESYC

Assay [2] deals with human GLP-1 receptor (human, UniProt P43220 24-463).
Assay [3] addresses human glucagon receptor (human, UniProt P47871 26-477).
The target of assay [4] is T2, human glucose-dependent insulinotropic polypeptide (GIP) receptor (human) (UniProt P48546).
T2 sequence (looked up): T1 sequence (looked up)

Assay [5] deals with human glucagon-like peptide-1 (GLP-1) receptor (human) (UniProt P43220).
For assay [6], the target named is human glucagon receptor (human) (UniProt P47871).

Substitutions are numbered along the chain they refer to.

B1: Example 223 (peptide)
peptide: YXEGTXTSDXSIXLDXIAQXEFIXXLIKGGPSSGAPPPSK
modifications: Y-Aib-EGT-αMeF(2F)-TSD-4Pal-SI-αMeL-LD-Orn-IAQ-Aib-EFI-(D-Glu)-αMeY-LIK((2-[2-(2-Amino-ethoxy)-ethoxy]-acetyl)2-CO-(CH2)12-CO2H)GGPSSGAPPPSK((2-[2-(2-Amino-ethoxy)-ethoxy]-acetyl)2-CO-(CH2)12-CO2H)-NH2
On to B1, for which the “cAMP EC50 (1.0% HSA)” value was 7.84 nM in assay [1], 90.5 nM in assay [2] and greater than 9950 nM in assay [3]. Besides, the “cAMP Emax (1.0% HSA)” value in assay [1] stood at 79.2%; in assay [2] it was 115%. Moreover, the cAMP EC50 in assay [4] is 0.0252 nM; in assay [5], 1.43 nM; in assay [6], greater than 9950 nM. Also, the cAMP Emax in assay [4] was 103%; in assay [5], 94%.

B2: Example 229 (peptide)
peptide: B1 peptide
modifications: Y-Aib-EGT-αMeF(2F)-TSD-4Pal-SI-αMeL-LD-Orn-IAQ-Aib-EFI-(D-Glu)-αMeY-LIK((2-[2-(2-Amino-ethoxy)-ethoxy]-acetyl)3-(γ-Glu)-CO-(CH2)12-CO2H)GGPSSGAPPPSK((2-[2-(2-Amino-ethoxy)-ethoxy]-acetyl)3-(γ-Glu)-CO-(CH2)12-CO2H)-NH2
With B2, the “cAMP EC50 (1.0% HSA)” value in assay [1] was 7.35 nM; in assay [2] it was 135 nM; in assay [3], greater than 9950 nM. Moreover, the entries for the “cAMP Emax (1.0% HSA)” value in assay [1] and in assay [2] were 80.5% and 99%, respectively. Further, the values for the cAMP EC50 in assay [4], in assay [5] and in assay [6] were 0.0253 nM, 2.25 nM and greater than 9950 nM, respectively. For the same molecule, the cAMP Emax in assay [4] came to 103%; in assay [5] it was 94.3%.

B3: Example 220 (peptide)
peptide: YXEGTXTSDXXIXLDXIAQXKFIXXLIKGGPSSGAPPPS
modifications: Y-Aib-EGT-αMeF(2F)-TSD-4Pal-Aib-I-αMeL-LD-Orn-IAQ-Aib-K((2-[2-(2-Amino-ethoxy)-ethoxy]-acetyl)2-(γ-Glu)-CO-(CH2)12-CO2H)FI-(D-Glu)-αMeY-LIK((2-[2-(2-Amino-ethoxy)-ethoxy]-acetyl)2-(γ-Glu)-CO-(CH2)12-CO2H)GGPSSGAPPPS-NH2
In the case of B3, the “cAMP EC50 (1.0% HSA)” value was 11.6 nM in assay [1], 150 nM in assay [2] and greater than 9950 nM in assay [3]. Also, the “cAMP Emax (1.0% HSA)” value turned out to be 83.5% in assay [1] and 110% in assay [2]. The results for the cAMP EC50 in assay [4], in assay [5] and in assay [6] were 0.0237 nM, 0.535 nM and greater than 9950 nM, respectively. Besides, the cAMP Emax in assay [4] worked out at 91.6%; in assay [5] it was 87.6%.

B4: Example 244 (peptide)
peptide: B3 peptide with I17K, K21E
modifications: Y-Aib-EGT-αMeF(2F)-TSD-4Pal-Aib-I-αMeL-LD-Orn-K((2-[2-(2-Amino-ethoxy)-ethoxy]-acetyl)2-(γ-Glu)-(10-(4-carboxyphenoxy)decanoyl))AQ-Aib-EFI-(D-Glu)-αMeY-LIK((2-[2-(2-Amino-ethoxy)-ethoxy]-acetyl)2-(γ-Glu)-(10-(4-carboxyphenoxy)decanoyl))GGPSSGAPPPS-NH2
As to B4, the entries for the “cAMP EC50 (1.0% HSA)” value in assay [1] and in assay [2] were 0.983 nM and 30.8 nM, respectively. Moreover, the results for the cAMP EC50 in assay [4], in assay [5] and in assay [6] were 0.0218 nM, 2.25 nM and greater than 9950 nM, respectively. Besides, the figures for the cAMP Emax in assay [4] and in assay [5] were 101% and 104%, respectively.

(Values after patent US20230265151A1, “GIP/GLP1 CO-AGONIST COMPOUNDS” (priority 2020, published 2023).)
